Numbering of substitutions follows the chain as printed.
B1: NRC3_wobSeed39_DR1_G22T_o1 (dsDNA)
DNA 1: GCCGAACTAGGTCAAAGGACATTGAAAGGCGACGTAGCGATTGACAGCGTAGAATGAAGG
DNA 2: CCTTCATTCTACGCTGTCAATCGCTACGTCGCCTTTCAATGTCCTTTGACCTAGTTCGGC
B2: NRC3_wobSeed134_DR5_G26C_o1 (dsDNA)
DNA 1: GCGCTGCTAGGTCAACTGATGGTCACCTAAAGCTCGGCGATTGACAGCGTAGAATGAAGG
DNA 2: CCTTCATTCTACGCTGTCAATCGCCGAGCTTTAGGTGACCATCAGTTGACCTAGCAGCGC
B3: NRC3_wobSeed27_DR1_T5G_o1 (dsDNA)
DNA 1: GCACGCGGAGGACAAAGGTCAGAGCTACGCCAGTGAGCGATTGACAGCGTAGAATGAAGG
DNA 2: CCTTCATTCTACGCTGTCAATCGCTCACTGGCGTAGCTCTGACCTTTGTCCTCCGCGTGC
B4: NRC3_wobSeed63_DR2_T8A_o1 (dsDNA)
DNA 1: GCCGAACAAGGTCACCAGGACAGTGAAGAGGTTGGAGCGATTGACAGCGTAGAATGAAGG
DNA 2: CCTTCATTCTACGCTGTCAATCGCTCCAACCTCTTCACTGTCCTGGTGACCTTGTTCGGC
B5: NRC3_wobSeed88_DR3_C21A_o1 (dsDNA)
DNA 1: GCTAGCCTAGGTCATGCGGGACAGTATAGTGTCGGCGCGATTGACAGCGTAGAATGAAGG
DNA 2: CCTTCATTCTACGCTGTCAATCGCGCCGACACTATACTGTCCCGCATGACCTAGGCTAGC
B6: NRC3_wobSeed114_DR4_C7A_o1 (dsDNA)
DNA 1: GCAATAAAGGGTCATCGTAGGCCAGAGTACGCACAGGCGATTGACAGCGTAGAATGAAGG
DNA 2: CCTTCATTCTACGCTGTCAATCGCCTGTGCGTACTCTGGCCTACGATGACCCTTTATTGC
B7: NRC3_wobSeed114_DR4_G20C_o1 (dsDNA)
DNA 1: B6 DNA 1 with A7C, G20C
DNA 2: B6 DNA 2 with C41G, T54G
B8: NRC3_wobSeed42_DR1_C7A_o1 (dsDNA)
DNA 1: GCTATAAAGGGTCAAAGGCCAGAGTACGAATGTCGAGCGATTGACAGCGTAGAATGAAGG
DNA 2: CCTTCATTCTACGCTGTCAATCGCTCGACATTCGTACTCTGGCCTTTGACCCTTTATAGC
B9: NRC3_wobSeed87_DR3_A5C_o1 (dsDNA)
DNA 1: GCCGCACTAGGTCATCCAGGACAGTGAATACATTGAGCGATTGACAGCGTAGAATGAAGG
DNA 2: CCTTCATTCTACGCTGTCAATCGCTCAATGTATTCACTGTCCTGGATGACCTAGTGCGGC
B10: NRC3_wobSeed135_DR5_T8A_o1 (dsDNA)
DNA 1: GCCGAACAAGGTCATTGACAGGACAGTGAATAGTAAGCGATTGACAGCGTAGAATGAAGG
DNA 2: CCTTCATTCTACGCTGTCAATCGCTTACTATTCACTGTCCTGTCAATGACCTTGTTCGGC
B11: NRC3_wobSeed92_DR3_T13C_o1 (dsDNA)
DNA 1: GCAGAATGAGGTCATTAAGATCAGGGAATTGCGGTCGCGATTGACAGCGTAGAATGAAGG
DNA 2: CCTTCATTCTACGCTGTCAATCGCGACCGCAATTCCCTGATCTTAATGACCTCATTCTGC
B12: NRC3_wobSeed141_DR5_A29T_o1 (dsDNA)
DNA 1: GCAGTCAAAGTTCAGGACGAGGTAACGTTAAGCACGGCGATTGACAGCGTAGAATGAAGG
DNA 2: CCTTCATTCTACGCTGTCAATCGCCGTGCTTAACGTTACCTCGTCCTGAACTTTGACTGC
B13: NRC3_wobSeed10_DR0_T4G_o1 (dsDNA)
DNA 1: GCAGCGAAAGGTCGAGGTGAGTATAGAGAAAGGGAAGCGATTGACAGCGTAGAATGAAGG
DNA 2: CCTTCATTCTACGCTGTCAATCGCTTCCCTTTCTCTATACTCACCTCGACCTTTCGCTGC

target: FXR:RXRa (Homo sapiens, UniProt Q96RI1;P19793 full;full); experiment: no ligand; PBM; 270 nM : 90 nM RXRa; PBS pH 7.4, 2% milk, 0.02% Triton X-100, 1 mM DTT, BSA, 0.4 mg/ml salmon testes DNA; details: tags: His kept;His cleaved; copies: 1;1; label: surface-attached array probe
Summary of the method: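 Ligand-free nuclear receptor dimers were bound for 1 h to custom Agilent 4×180K protein-binding microarrays. Detection used antibodies against each partner (one per run). Binding z-scores rest on regression-normalized fluorescence, with random background probes as the reference.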

FXR:RXRa, sequence (Q96RI1 whole entry, chain 1 of 2): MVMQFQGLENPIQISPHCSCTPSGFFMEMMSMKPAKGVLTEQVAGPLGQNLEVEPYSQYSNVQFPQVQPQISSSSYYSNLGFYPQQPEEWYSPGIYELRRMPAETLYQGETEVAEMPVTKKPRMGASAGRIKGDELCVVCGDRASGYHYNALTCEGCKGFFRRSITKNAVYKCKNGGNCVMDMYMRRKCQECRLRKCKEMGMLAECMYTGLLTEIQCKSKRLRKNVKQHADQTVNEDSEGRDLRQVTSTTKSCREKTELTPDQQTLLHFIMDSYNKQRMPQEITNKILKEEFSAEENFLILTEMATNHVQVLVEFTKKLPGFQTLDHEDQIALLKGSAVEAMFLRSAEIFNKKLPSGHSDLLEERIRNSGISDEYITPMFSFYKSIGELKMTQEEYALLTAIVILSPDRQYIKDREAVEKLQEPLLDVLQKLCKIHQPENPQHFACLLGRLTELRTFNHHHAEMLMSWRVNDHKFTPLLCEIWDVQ
FXR:RXRa, sequence (P19793 whole entry, chain 2 of 2): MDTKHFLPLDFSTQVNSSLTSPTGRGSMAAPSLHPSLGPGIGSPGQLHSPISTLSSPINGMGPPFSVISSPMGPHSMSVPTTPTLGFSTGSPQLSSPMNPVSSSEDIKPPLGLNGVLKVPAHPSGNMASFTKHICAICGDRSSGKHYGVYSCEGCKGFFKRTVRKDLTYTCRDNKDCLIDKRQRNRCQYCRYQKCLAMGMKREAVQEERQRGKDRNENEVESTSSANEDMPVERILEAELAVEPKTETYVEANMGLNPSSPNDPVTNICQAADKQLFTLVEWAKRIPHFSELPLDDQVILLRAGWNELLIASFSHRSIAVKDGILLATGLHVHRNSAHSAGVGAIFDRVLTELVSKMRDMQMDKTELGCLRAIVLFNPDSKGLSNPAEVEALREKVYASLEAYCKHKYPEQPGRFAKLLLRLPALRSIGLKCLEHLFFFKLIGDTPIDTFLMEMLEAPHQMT

Binder | binding signal
B1 | 4.46 PBM z-score against 500 random probes
B2 | 4.42 PBM z-score against 500 random probes
B3 | 4.39 PBM z-score against 500 random probes
B4 | 7.74 PBM z-score against 500 random probes
B5 | 4.37 PBM z-score against 500 random probes
B6 | 7.8 PBM z-score against 500 random probes
B7 | 7.71 PBM z-score against 500 random probes
B8 | 7.71 PBM z-score against 500 random probes
B9 | 4.33 PBM z-score against 500 random probes
B10 | 7.74 PBM z-score against 500 random probes
B11 | 7.7 PBM z-score against 500 random probes
B12 | 4.29 PBM z-score against 500 random probes
B13 | 4.31 PBM z-score against 500 random probes

From publication PMC6555819, “Comprehensive study of nuclear receptor DNA binding provides a revised framework for understanding receptor specificity”
